Publication doi:10.1101/2025.06.23.656378

Tested on: poly-L-lysine (PLL, 30-70 kDa, Sigma P2636)
Assay: EMSA
Details: 10 mM Tris pH 7.5, 100 mM KCl, 5% glycerol, 30 min at room temperature

| Sequence | Kd [nM] |
| --- | --- |
| UUAGAAUUAGAAUUAGAAUUAGAA [rTERRA_M2 [UUAGAA]4] | 7.4 |
| TTAGAATTAGAATTAGAATTAGAA [dTERRA_M2 [TTAGAA]4] | 34 |
